Consider two substances from publication PMC2630241.

Assay [1] has as its target Selenomethionine substituted TRPM7cc (rat) (UniProt Q925B3). The assay can be described thus: crystal structure.
Assay [2] has as its target TRPM7 coiled-coil assembly domain (TRPM7cc), rat TRPM7 residues 1230-1282 (rat) (UniProt Q925B3). The assay can be described thus: AUC.
Assay [3] shares this target. The experiment in a line: crystal structure.
For assay [4] the target is unchanged. The assay can be described thus: SEC. (In general: In gel filtration, larger molecules generally elute earlier.)

Several values for one entry are separate records, joined by “and”; a condition that tells them apart may be missing. Identical values can stand only once.

In the case of “Selenomethionine substituted TRPM7cc (from UniProt Q925B3 1230-1282) (domain or fragment)”, in assay [1], the stoichiometry N – broadly, the number of molecules, sites or subunits per partner or assembly – stood at 4.

As for “TRPM7 coiled-coil assembly domain (TRPM7cc), rat TRPM7 residues 1230-1282 (from UniProt Q925B3 1230-1282) (domain or fragment)”, the stoichiometry N in assay [2] was 4.1 and 3.7; in assay [3], 4; in assay [4], 4.
